Measurements published in US20080081047A1.
Where a chain is given by its changes, count along the chain named.

B1: F26G9 (antibody, V domains shown)
VH: VQLLESGTVLARPGASVKMSCKASGYSFTSYWMHWVKQRPGQGLEWIGAIYPGNSDTSYNQKFKGKAKLTAVTSASTAYMELSSLTNEDSAVYYCTRSVYYGYGYFDVWGAGTTVTVSS
VL: DILMTQSHKCMSTSVGDRVSITCKASQDVSTAVVWYQQKPGQFPKLLIYWASTRHTGVPDRFTGSGSGTDYTLTISSVQAEDLALYYCQQHYTTPYTFGGGTKLEIKR
B2: F26G10 (antibody, V domains shown)
VH: EVQLEESGTVLARPGASVKMSCKASGYSFTSYWMHWVKQRPGQGLDWIGAIYPENSDTSYNQKFKGKAKLTAVTSASTAYMEHSSLTNEDSAVYYCTRSVYYGYGYFDVWGAGTTVTVSS
VL: B1 VL with C10F, V34A, F43S, T93S
B3: F26G3 (antibody, V domains shown)
VH: EVRLQQSGPELVKPGASVKISCKTSGYTFTEYTMHWVKQSHGKNLEWIGGINPNNGGTTYNQKFKGKATLTVDKSSNTAYMELRSLTSEDSAVYYCSRGDYGTSYGYFDVWGAGTTVTVSS
VL: DILMTQSPTSFAVSLGQRATISCRTSQSVSTSSYSYMHWYQQKPGQPPKLLIKYASNLESGVPARFSGSGSGSDFTLNIHPVEEGDTATYYCQHSWEIPCAFGGGTKLEIKR
B4: F26G7 (antibody, V domains shown)
VH: VELLESGTVLARPGASVKMSCEASGYTFTTYWMHWIKQRPGQGLEWIGAIYPGNSDTTYNQKFKGKAKLTAVTSTSTAYMELSSLTNEDSAVYYCTREGIPQLLRTMDYWGQGTSVTVSS
VL: ELVMTQSPSSLSASLGERVSLTCRASQEISGYLSWLQQKPDGTIKRLIYAASTLDSGVPKRFSGSRSGSDYSLTISSLESEDFADYYCLQYISYPWTFGGGTKLEIKR

These binders were tested against SARS-HCoV antigen(s) of unknown identity (purified whole virus, infected Vero cell lysate or infected Vero cells) (assay: ELISA, virus heated 100 C 10 min, coated at 32 ng/well).
B1 was tested, and the ELISA OD 405 nm, Denatured Lysate was 0.278 OD 405 nm.
Work on B2 yielded an ELISA OD 405 nm, Denatured Lysate of 0.29 OD 405 nm.
Binder B3 has an ELISA OD 405 nm, Denatured Lysate of 0.276 OD 405 nm.
For B4, the ELISA OD 405 nm, Denatured Lysate was 0.382 OD 405 nm.

The binders below were run against SARS-HCoV antigen(s) of unknown identity (purified whole virus, infected Vero cell lysate or infected Vero cells) (assay: ELISA, native gradient purified virus coated at 32 ng/well).
B1 gave an ELISA OD 405 nm, Viral Lysate (native) of 1.34 OD 405 nm.
Binder B2 has an ELISA OD 405 nm, Viral Lysate (native) of 1.26 OD 405 nm.
B3 showed an ELISA OD 405 nm, Viral Lysate (native) of 1.25 OD 405 nm.
Work on B4 yielded an ELISA OD 405 nm, Viral Lysate (native) of 1.92 OD 405 nm.

What follows are binders tested against SARS-HCoV antigen(s) of unknown identity (purified whole virus, infected Vero cell lysate or infected Vero cells) (assay: ELISA, OD on native virus against OD on heat-denatured virus).
Binder B1 has an O.D. Reduction, Fold of 4.8 fold and an O.D. Reduction, Percent of 79%.
For B2, the O.D. Reduction, Fold was 4.3 fold and the O.D. Reduction, Percent was 77%.
B3 gave an O.D. Reduction, Fold of 4.5 fold and an O.D. Reduction, Percent of 78%.
B4 gave an O.D. Reduction, Fold of 5 fold and an O.D. Reduction, Percent of 80%.
